Laboratory results from the supplement of paper PMC10567573.
± gives the standard deviation.

Test: protein stability index of a GFP-peptide fusion (GPS, HEK-293T) (PSI 1-6); higher = more stable
Settings: c terminus: a fixed tail appended
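Further: 24-mer peptide tiles fused after GFP, lentivirally expressed, FACS-sorted into six equal bins by GFP/DsRed ratio, decoded by Illumina sequencing, PSI is the read-weighted mean bin number.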

Sequence	protein stability index (treatment: DMSO)	protein stability index (treatment: MLN4924 1 uM, 8 h)
EEKPQENKTWREQYLRLPDAPEQR [ELOA2]	5.18 ± 0.28	4.88 ± 0.11
EEMAVVPQGLFRGGKSGELEQEEE [CHGA]	5.63 ± 0.27	5.62 ± 0.18
EEPQTVPEARSRDATPPVSPINME [JUNB]	5.38 ± 0.29	5.46 ± 0.27
EEVTRLGAQVKELEEKCQQPASEL [TRIM15]	5.5 ± 0.12	5.52 ± 0.13
EEWNALQSVENCPEDLAQLEELID [RPAIN]	5.14 ± 0.29	5.29 ± 0.26
EFAEMVEREEEDDALDSEGRDSEG [KCNG1]	5.68 ± 0.22	5.62 ± 0.29
EFAGSSPQSSKSTVVKSLIDNSSE [FAN1]	5.08 ± 0.27	5.28 ± 0.12
EFLLDLGHHERSIMTDLYYLSQTD [FUT8]	2.2 ± 0.36	2.47 ± 0.16
EGELGEYRQKLLMFLEISSYYDPG [VPS39]	2.19 ± 0.22	2.18 ± 0.28
EGSIWRGAQMEKEWARALETRDWG [ZSWIM9]	3.37 ± 0.3	3.42 ± 0.21
EGYVWRGSQLEDQALRGLEGYTWR [ZSWIM9]	2.7 ± 0.22	2.67 ± 0.18
EHQRSHTGERPHQCIECGKSFNRH [ZSCAN9]	3.88 ± 0.41	4.17 ± 0.41
EIRRKEKEAVLAMEKKSKPKNSVW [RIT1]	4.12 ± 0.17	4.29 ± 0.38
EKALKKNVKLQELINHKKAEDTEK [CEP70]	4.85 ± 0.34	5.07 ± 0.2
EKALQVLVDQSKKANSPLKGHERT [VPS39]	4.06 ± 0.21	4.48 ± 0.26
EKESTELRAEEIETRVTSGSMEAL [PPFIA4]	5.53 ± 0.17	5.45 ± 0.27
EKFDIVKKWGINTYKCTKQLLSER [ARFIP2]	2.78 ± 0.37	2.79 ± 0.19
EKNIILEEKIQVLQQQNEDLKARI [MTUS2]	4.03 ± 0.24	4.04 ± 0.23
EKNNHRAKDLRAPPEQGKIFIARR [SOAT1]	3.16 ± 0.33	3.27 ± 0.5
EKTNGATPLLMAARYGHLDMVEFL [FEM1C]	2.91 ± 0.2	3.05 ± 0.37
ELAALLIERGASLEEVNDEGYTPL [ANKRD17]	2.34 ± 0.29	2.78 ± 0.53
ELSKDAQASAAPAAPLPERNSLSA [SLC29A1]	5.15 ± 0.12	5.05 ± 0.27

Sequence	protein stability index (treatment: DMSO)	protein stability index (treatment: MLN4924 1 uM, 8 h)
EMDWAQMACHRCLVYLGDLSRYQN [SMG5]	2.36 ± 0.4	2.17 ± 0.18
EMLSASRYPTISMVKPLLHMLLNT [ZBED1]	2.6 ± 0.81	3.02 ± 0.79
ENAPIGTLLLRLNATDPDEGTNGQ [PCDHGC5]	4.95 ± 0.15	4.92 ± 0.18
ENIQDITVNIHRLHVKRSMGWKKA [ZMYND11]	2.98 ± 0.26	3.22 ± 0.49
ENKPSTCSFSIERILGLDQKKDCV [HESX1]	3.12 ± 0.49	3.42 ± 0.47
ENRELYIKTTLRELLVYIVFLVDI [PKD2L1]	2.58 ± 0.87	2.57 ± 0.82
ENSGILQGKLIKRQRLAKNDRGDH [EFHC1]	3.85 ± 0.32	4.37 ± 0.11
ENYETVISLALFVLPKPKVISCLE [ZNF75A]	3.11 ± 0.47	3.46 ± 0.28
EPVLTQTSEQAPSSAPRDVQARML [PTPRD]	5.13 ± 0.26	5.31 ± 0.26
EQGEPLWTLEDEIHSPAHPEIEKA [ZNF649]	5.44 ± 0.44	5.57 ± 0.22
EQPITDFCSVIRINSTAPFEEQEN [ZNF277]	4.4 ± 0.23	4.46 ± 0.3
EQSLLSRWNPWSTEVPYATFTEHP [TPRG1]	3.13 ± 0.22	3.06 ± 0.16
ERDFPCPVCRKTSRYRSLRPNRQL [TRIM39]	2.93 ± 0.46	3.23 ± 0.45
ERIVVAGNNEDVSFSRPADLDLIQ [MFF]	4.96 ± 0.075	4.21 ± 0.32
ESKKNRVEINDLDPEVFKEMMRFI [SPOPL]	1.55 ± 0.31	–
ESLIVFMEQVHRGIKGLVRDSHGK [CPXM2]	2.26 ± 0.58	2.13 ± 0.76
ESMYGDFQEAMTHLQHKLICTRKP [TENT5D]	3.54 ± 0.17	3.58 ± 0.38
ESPRKRKKATEAIDSLRKSKRLRN [FBXO28]	5.3 ± 0.23	5.33 ± 0.14
ETAGQKPLSVHRPPTSGCLGPVPR [TSPAN10]	4.25 ± 0.46	4.22 ± 0.19
ETEDVDYGETDFHKQDGKAGLFSQ [TMEM40]	5.3 ± 0.27	5.36 ± 0.2
EVAGGGTPLLIAARYGHLDVVEYL [FEM1A]	2.46 ± 0.19	2.32 ± 0.34
EVELAYQEAMFNMATLNRTAAGLM [SEPHS2]	2.42 ± 0.46	2.56 ± 0.68

Sequence	protein stability index (treatment: DMSO)	protein stability index (treatment: MLN4924 1 uM, 8 h)
EVGDPAPLGAGNLGPELIKESNAN [DPCD]	5.31 ± 0.31	5.28 ± 0.1
EYSKFCRMSYQDPAQLSCLPYLEH [NFE2L1]	2.52 ± 0.56	1.89 ± 0.42
FATQTEELNKQVVSSSEQLQSCQA [KRT34]	4.87 ± 0.28	4.86 ± 0.33
FCGAPPVTPIIVLSIINFFERLCL [PHTF1]	2.87 ± 0.47	2.5 ± 0.46
FDPAEKYKMDHRRRGIALIFNHER [CASP6]	2.89 ± 0.2	3.19 ± 0.39
FEHEMEESKKNRVEINDLDPEVFK [SPOPL]	4.99 ± 0.39	5.02 ± 0.32
FEPHSGEDYSRDEDHIAHIIELLG [SRPK2]	3.3 ± 0.19	3.63 ± 0.18
FGAVNLSSPSNMLPVRPQTNALIG [CLINT1]	3.23 ± 0.12	3.26 ± 0.41
FGHLSVFSTSKWNHLLHHFVIGHL [FADS1]	2.58 ± 0.41	2.76 ± 0.78
FGVKYNPYTRSIQILKDTKSITSA [TPH1]	2.43 ± 0.63	2.46 ± 0.11
FHRLDEPPHICWDETHFGKMGSYY [POMT2]	2.42 ± 0.51	2.36 ± 0.4
FIYTAKLSLNMDNLQDTLEAASFL [KLHL13]	2.65 ± 0.54	2.96 ± 0.48
FLDKSGSHGYDMSTFIRRYSRYLN [SNAP91]	2.38 ± 0.4	2.64 ± 0.49
FLDLERPPTTPQNEEIRAVGRLKR [MFF]	–	4.07 ± 0.3
FLGSSFSPVRCGGPGDASPRGCGA [WEE1]	2.27 ± 0.34	2.61 ± 0.48
FLLVQRFGELMRKLWNPRNFKAHV [USP39]	2.47 ± 0.51	2.54 ± 0.7
FLVANFSQIETLTSVFQKKLCTAH [MATN2]	2.6 ± 0.56	2.52 ± 0.49
FNDVAKFLKQGDSADETTAHKTEE [CMTM3]	4.97 ± 0.23	5.13 ± 0.12
FNIGLPDNIVNCNEFLCTLQKKLD [ZNF277]	2.48 ± 0.32	2.51 ± 0.35
FRIYKSVIQAVQKSEEGHPFKAYL [RTN3]	2.4 ± 0.23	2.29 ± 0.21
FRSGALDLDSCSRDGALLGCSLTA [MYORG]	2.58 ± 0.12	2.34 ± 0.32
